Key:
[1] = target: T1, hFc-hROR1 (extracellular domain of human ROR1 fused to the Fc domain of human IgG1) (human, UniProt Q01973 30-406); test: SPR (Biacore X100); hFc-hROR1 captured by anti-human Fcγ antibody on CM5; Fab as analyte; 1:1 Langmuir fit
T1 construct: extracellular domain; also called hFc-ROR1; not shown: Fc domain of human IgG1
Procedure: (A) Shown are Biacore X100 sensorgrams obtained for the binding of each Fab to hFc-hROR1 captured by anti-human Fcγ antibody immobilized on CM5 chip after instantaneous background depletion. Fabs were injected at five different concentrations with the highest concentration indicated in table (B), one of the five concentrations was tested in duplicates. The equilibrium dissociation constant (Kd) was calculated from koff/kₒₙ (kₒₙ, association rate constant; koff, dissociation rate constant).
Surface plasmon resonance: Surface plasmon resonance for the measurement of the affinities of all Fabs to hFc-hROR1 and for epitope mapping studies were performed on a Biacore X100 instrument using Biacore reagents and software (GE Healthcare, Piscataway, N.J.). Anti-Human IgG (Fc) antibody was immobilized on a CM5 sensor chip following the instruction of Human Antibody Capture Kit (GE Healthcare, Piscataway, N.J.). The sensor chip included an empty flow cell for instantaneous background depletion. All binding assays used 1×HBS-EP+ running buffer (10 mM HEPES, 150 mM NaCl, 3 mM EDTA (pH 7.4), and 0.05% (v/v) Surfactant P20) and a flow rate of […]. […] The sensor chip was regenerated with […] from the Human Antibody Capture Kit without any loss of binding capacity. Calculation of association (kₒₙ) and dissociation (koff) rate constants was based on a 1:1 Langmuir binding model. The equilibrium dissociation constant (Kd) was calculated from koff/kₒₙ. For epitope mapping studies, each Fab was prepared at 500 nM alone in 1×HBS-EP+ running buffer and then injected in order as indicated in FIG. 5.

Kr = target: T2, Kr (human, UniProt Q01973); test: ELISA on directly coated hFc fusion proteins of hROR1 domains; anti-His-HRP; A405
T2 construct: Kringle domain of the extracellular domain; also called hFc-hROR1-Kr
Procedure: (§1) ELISA: For ELISA (FIG. 2), each well of a 96-well Costar 3690 plate (Corning, Corning, N.Y.) was coated with 100 ng anti-human IgG1 Fc in 25 μL coating buffer (0.1 M Na₂CO₃, 0.1 M NaHCO₃, pH 9.6) for 1 h at 37° C. After blocking with 150 μL 3% (w/v) BSA/TBS for 1 h at 37° C., hFc-hROR1 or hFc-mROR1 was captured following incubation at 100 ng/50 μL for 1 h at 37° C. Then 100 ng/50 μL of Fab was applied in each well at 37° C. 2 h later, 50 μL of a 1:1000 dilution of a mouse anti-His tag mAb conjugated to horse radish peroxidase (HRP) (R&D Systems, Minneapolis, Minn.) in 1% (w/v) BSA/TBS was used to detect the Fab. To determine the epitopes (FIG. 4), hFc fusion proteins containing different domains of hROR1 were coated directly, followed by incubation with Fab before detection by mouse anti-His tag mAb conjugated to HRP. Washing with PBS was repeated and colorimetric detection was performed using 2,2′-azino-bis(3-ethylbenzthiazoline)-6-sulfonic acid (Roche) as substrate according to the manufacturer's directions. The absorbance was measured at 405 nm using a SpectraMax M5 microplate reader (Molecular Devices; Sunnyvale, Calif.) and SoftMax Pro software (Molecular Devices).

Fr = target: T3, Fr; test: as above
T3 construct: also called hFc-hROR1-Fr
Procedure: as §1

Fr + Ki = target: T4, Fr + Ki (human, UniProt Q01973); test: as above
T4 construct: Frizzled and Kringle domains of the extracellular domain; also called hFc-hROR1-Fr-Ki
Procedure: as §1

Ig = target: T5, Ig (human, UniProt Q01973); test: as above
T5 construct: Ig domain of the extracellular domain; also called hFc-hROR1-Ig
Procedure: as §1

[2] = target: T6, hFc-mROR1 (extracellular domain of mouse ROR1 fused to the Fc domain of human IgG1) (human; mouse, UniProt Q9Z139 30-406); test: ELISA; hFc fusion captured by coated anti-human IgG1 Fc; anti-His-HRP; A405
T6 construct: extracellular domain; not shown: Fc domain of human IgG1
Procedure: (§2) The binding of each chimeric rabbit/human Fab to hROR1 and mROR1 fused with human IgG1 Fc (hFc-hROR1 and hFc-mROR1) was analyzed by ELISA. hFc-ROR1 or hFc-mROR1 were captured by anti-human IgG1 Fc antibody immobilized on plate and then incubated with hROR1 specific Fabs comprising a His-tag via detection with mouse anti-His tag.
as §1

[3] = target: T7, hFc-hROR2 (extracellular domain of human ROR2 fused to the Fc domain of human IgG1) (human, UniProt Q01974 34-403); test: ELISA as for hFc-hROR1; third bar series, keyed 'hFc-hROR1' a second time on the sheet, taken as hFc-hROR2 by legend paragraph 27
T7 construct: extracellular domain; not shown: Fc domain of human IgG1
Procedure: as §2, §1

hROR2 = target: T8, hROR2 (human, UniProt Q01974); test: flow cytometry on 63-12 / hROR2 cells; anti-His Alexa Fluor 488
T8 construct: full length, on the cell surface; also called 63-12 / hROR2; ROR2 on T47D cells
Procedure: Flow cytometry: Cells were stained using standard flow cytometry methodology. Briefly, for purified anti-ROR1 Fab (FIG. 3), 0.1-1×10⁶ cells were stained with 1000 ng/100 μL of Fab on ice for 1 h. After washing twice with ice-cold flow cytometry buffer (PBS containing 1% (v/v) BSA, 0.1% sodium azide and 1 mM EDTA), the cells were incubated with a 1:1000 dilution of a mouse anti-His tag mAb conjugated to Alexa Fluor 488 (Qiagen) in 100 μL flow cytometry buffer on ice for 30 min. For purified anti-ROR1 IgG1 (FIG. 8), 0.1-1×10⁶ cells were blocked by 4% goat serum for 15 min at room temperature and then incubated with 100 ng/100 μL of IgG on ice for 1 h. After washing twice with ice-cold flow cytometry buffer, cells were stained with a 1:500 dilution of goat anti-human IgG, Fcγ pAbs conjugated to APC (Jackson ImmunoResearch) in 100 μL flow cytometry buffer on ice for 30 min. For commercial goat anti human ROR1 polyclonal antibody (FIG. 8), 0.1-1×10⁶ cells were stained with 200 ng/100 μL of Ab on ice for 1 h. […] Finally, 4′,6-diamidino-2-phenylindole (DAPI) was added to a final concentration of 100 ng/mL to exclude dead cells from the analysis. Cells were analyzed using a FACSCalibur instrument (BD Biosciences) and FlowJo analytical software (Tree Star, Ashland, Oreg.).

T1 sequence (Q01973 30-406): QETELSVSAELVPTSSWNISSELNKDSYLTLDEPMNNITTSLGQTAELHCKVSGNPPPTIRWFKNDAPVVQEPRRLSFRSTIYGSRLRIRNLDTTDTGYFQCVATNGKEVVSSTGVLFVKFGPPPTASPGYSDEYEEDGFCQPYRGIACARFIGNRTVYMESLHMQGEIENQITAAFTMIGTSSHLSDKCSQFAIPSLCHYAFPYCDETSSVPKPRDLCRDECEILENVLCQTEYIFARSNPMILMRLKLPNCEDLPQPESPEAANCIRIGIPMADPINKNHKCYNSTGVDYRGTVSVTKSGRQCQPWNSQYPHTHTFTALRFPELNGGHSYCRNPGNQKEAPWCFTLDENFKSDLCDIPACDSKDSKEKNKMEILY
T6 sequence (Q9Z139 30-406): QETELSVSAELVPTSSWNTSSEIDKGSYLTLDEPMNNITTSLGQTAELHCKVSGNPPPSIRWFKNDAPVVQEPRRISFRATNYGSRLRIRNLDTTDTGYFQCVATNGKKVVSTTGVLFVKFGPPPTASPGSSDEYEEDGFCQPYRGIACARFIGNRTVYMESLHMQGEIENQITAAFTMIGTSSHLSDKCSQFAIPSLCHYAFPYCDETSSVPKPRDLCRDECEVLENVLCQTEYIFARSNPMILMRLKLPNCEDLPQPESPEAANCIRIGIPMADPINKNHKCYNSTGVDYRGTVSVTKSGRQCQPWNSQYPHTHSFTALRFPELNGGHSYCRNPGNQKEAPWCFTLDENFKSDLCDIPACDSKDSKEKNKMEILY
T2 sequence (Q01973 312-391 limits assumed): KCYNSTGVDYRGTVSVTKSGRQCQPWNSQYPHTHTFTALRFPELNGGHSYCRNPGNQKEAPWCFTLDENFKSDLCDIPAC
T3 sequence (chain, as listed by the source limits assumed): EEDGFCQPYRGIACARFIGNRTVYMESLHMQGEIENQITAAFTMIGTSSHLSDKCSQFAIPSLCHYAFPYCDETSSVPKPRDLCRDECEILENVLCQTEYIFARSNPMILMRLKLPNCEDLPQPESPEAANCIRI
T8 sequence (Q01974 34-943 limits assumed): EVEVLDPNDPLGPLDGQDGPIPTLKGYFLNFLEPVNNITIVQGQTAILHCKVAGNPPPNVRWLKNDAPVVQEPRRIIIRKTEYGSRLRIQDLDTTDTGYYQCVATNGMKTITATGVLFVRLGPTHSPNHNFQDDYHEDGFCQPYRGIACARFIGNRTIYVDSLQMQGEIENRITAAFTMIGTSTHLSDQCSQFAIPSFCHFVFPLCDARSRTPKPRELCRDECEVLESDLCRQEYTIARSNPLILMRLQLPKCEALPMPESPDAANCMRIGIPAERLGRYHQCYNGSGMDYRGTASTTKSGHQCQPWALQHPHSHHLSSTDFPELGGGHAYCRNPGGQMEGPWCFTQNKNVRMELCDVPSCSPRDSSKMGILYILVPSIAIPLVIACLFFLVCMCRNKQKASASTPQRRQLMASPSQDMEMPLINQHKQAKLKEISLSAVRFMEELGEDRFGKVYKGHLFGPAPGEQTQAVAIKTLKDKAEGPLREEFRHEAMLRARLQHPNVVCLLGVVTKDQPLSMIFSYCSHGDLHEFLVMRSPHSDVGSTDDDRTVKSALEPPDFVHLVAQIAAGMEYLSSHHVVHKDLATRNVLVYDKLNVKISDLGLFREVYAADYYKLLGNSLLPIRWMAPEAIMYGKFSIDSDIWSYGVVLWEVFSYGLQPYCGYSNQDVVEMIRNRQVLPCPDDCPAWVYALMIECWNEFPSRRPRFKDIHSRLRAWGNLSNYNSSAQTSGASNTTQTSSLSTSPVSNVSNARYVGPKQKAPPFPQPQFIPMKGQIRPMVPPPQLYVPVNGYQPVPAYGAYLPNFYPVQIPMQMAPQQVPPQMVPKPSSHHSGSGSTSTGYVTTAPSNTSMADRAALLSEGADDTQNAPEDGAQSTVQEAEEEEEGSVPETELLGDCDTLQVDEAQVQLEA
T5 sequence (Q01973 42-147 limits assumed): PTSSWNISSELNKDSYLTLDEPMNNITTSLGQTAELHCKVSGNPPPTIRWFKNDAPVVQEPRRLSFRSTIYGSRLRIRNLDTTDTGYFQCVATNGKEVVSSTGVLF
T7 sequence (Q01974 34-403): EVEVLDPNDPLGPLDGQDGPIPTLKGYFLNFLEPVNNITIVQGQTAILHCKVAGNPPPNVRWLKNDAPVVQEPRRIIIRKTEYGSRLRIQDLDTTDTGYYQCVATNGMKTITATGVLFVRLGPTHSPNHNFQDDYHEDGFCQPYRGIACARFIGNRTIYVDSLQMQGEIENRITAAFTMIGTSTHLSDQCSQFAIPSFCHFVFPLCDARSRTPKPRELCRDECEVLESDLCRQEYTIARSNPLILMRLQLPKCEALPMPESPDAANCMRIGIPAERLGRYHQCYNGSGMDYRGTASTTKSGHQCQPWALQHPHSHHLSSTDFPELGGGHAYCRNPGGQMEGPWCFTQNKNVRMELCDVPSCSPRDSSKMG
T4 sequence (Q01973 165-391 limits assumed): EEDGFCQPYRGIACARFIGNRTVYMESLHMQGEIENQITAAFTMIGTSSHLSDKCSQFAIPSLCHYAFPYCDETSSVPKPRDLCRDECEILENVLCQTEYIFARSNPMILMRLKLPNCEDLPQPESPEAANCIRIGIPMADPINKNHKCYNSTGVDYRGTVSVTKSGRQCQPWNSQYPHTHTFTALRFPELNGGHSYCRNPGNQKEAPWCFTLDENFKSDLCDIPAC

Kd [1] [nM] | koff [1] [s⁻¹] | kon [1] [M⁻¹ s⁻¹] | binding result (Kr) | binding result (Fr) | binding result (Fr + Ki) | binding result (Ig) | binding result [2] | binding result [3] | binding result (hROR2) | Binder
139 | 0.0654 | 469000 | no binding | no binding | no binding | no binding | no binding (tested: 100 ng/50 µL) | no binding (tested: 100 ng/50 µL) | no binding (tested: 1000 ng/100 µL) | ERR1-TOP15 chimeric rabbit/human Fab (Fab, V domains shown, Chimeric rabbit/human Fab with His tag, expressed in E. coli (pET11a); lambda light chain) VH: QEQLVESGGRLVTPGGSLTLTCAASGFSPSSYWMSWVRQAPGKGLEWIGAIYVDSGSAYYASWAKSRFTISKTSSTTVDLKMTSLTTEDTAIYFCARDGWGSDVWGPGTLVTISS VL: SYELTQLPSVSVSLGQTARITCGGNSIGSKAVHWYQQKPGLAPGLLIYDDDERPSGVPDRFSGSNSGDTATLTISGAQAGDEADYYCQLWDSSAGAYVFGGGTQLTVTG
1.11 | 0.000501 | 451000 | no binding | no binding | no binding | no binding | no binding (tested: 100 ng/50 µL) | no binding (tested: 100 ng/50 µL) | no binding (tested: 1000 ng/100 µL) | ERR1-TOP43 chimeric rabbit/human Fab (Fab, V domains shown, Chimeric rabbit/human Fab with His tag, expressed in E. coli (pET11a); lambda light chain) VH: QSLEESGGRLVTPGTPLTLTCTVSGFSLSSYWMSWVRQAPGKGLEWIGAIYGSGNTYYASWAKGRFTISKTSTTVDLKITSPTTEDTATYFCARDVHSTATDLWGPGTLVTISS VL: SYELTQLPSVSVSLGQTARITCGGNNIGSKAVNWYQQKPGLAPGLLIYNDDERPSGVPDRFSGSNSGDTATLTISGAQAGDEADYYCQLWDSSAGAYVFGGGTQLTVTG
145 | 0.0688 | 475000 | no binding | no binding | no binding | – | no binding (tested: 100 ng/50 µL) | no binding (tested: 100 ng/50 µL) | no binding (tested: 1000 ng/100 µL) | ERR1-TOP54 chimeric rabbit/human Fab (Fab, V domains shown, Chimeric rabbit/human Fab with His tag, expressed in E. coli (pET11a); lambda light chain) VH: QSLEESGGRLVTPGTPLTLTCTASGFSLSDYYMSWVRQAPGEGLEWIGTIYGGSGNTWYATWAKGRFTISKTSTTVDLKITSPTTEDTATYFCARDFGLSTGGLWGPGTLVTISS VL: SYELTQLPSVSVSLGQTARITCGGNSIGSKAVNWYQQKPGLAPGLLIYDDDERPSGVPDRFSGSNSGDTATLTISGAQAGDEADYYCQLWDSSARAFVFGGGTQLTVTG
5.81 | 0.00643 | 1.11e+06 | no binding | – | no binding | no binding | no binding (tested: 100 ng/50 µL) | no binding (tested: 100 ng/50 µL) | no binding (tested: 1000 ng/100 µL) | XBR1-402 chimeric rabbit/human Fab (Fab, V domains shown, Chimeric rabbit/human Fab with His tag, expressed in E. coli (pC3C-His); lambda light chain) VH: QEQQKESGGGLFKPTDTLTLTCTASGFDISSYYMSWVRQAPGNGLEWIGAIGISGNAYYASWAKSRSTITRNTNLNTVTLKMTSLTAADTATYFCARDHPTYGMDLWGPGTLVTVSS VL: SYELTQLPSVSVSLGQTARITCEGNNIGSKAVHWYQQKPGLAPGLLIYDDDERPSGVPDRFSGSNSGDTATLTISGAQAGDEADYYCQVWDSSAYVFGGGTQLTVTG
– | – | – | no binding | no binding | no binding | no binding | – | no binding (tested: 100 ng/50 µL) | no binding (tested: 1000 ng/100 µL) | ERR1-306 chimeric rabbit/human Fab (Fab, V domains shown, Chimeric rabbit/human Fab with His tag, expressed in E. coli (pET11a); lambda light chain) VH: QEQLKESGGGLVQPGGSLKLSCKASGFDLSNYGVSWVRQAPGKGLEWIGYIDPTFDYTYYASWVNGRFSISRENTQNTVSLQINSLTPADTATYFCARWVYGVDDYGDGNWLDLWGQGTLVTISS VL: QFVLTQSPSVSAALGASAKLTCTLSSAHKTYTIDWYQQQQGEAPRYLMELKSDGSYTKGTGVPDRFSGSSSGADRYLIIPSVQADDEADYYCGTDYSGGYVFGGGTQLTVTG
– | – | – | no binding | no binding | no binding | – | – | no binding (tested: 100 ng/50 µL) | – | ERR1-324 chimeric rabbit/human Fab (Fab, V domains shown, Chimeric rabbit/human Fab with His tag, expressed in E. coli (pET11a); kappa light chain) VH: QSLEESGGGLVQPGESLTLTCTVSGFSLSRNGMTWVRQAPGKGLEWIGIITSSGDKYYATWAKGRFTISKTSSTTVDLKMTSLTTEDTATYFCARGTVSSDIWGPGTLVTISS VL: ELVLTQTPSPVSAAVGGTVTINCQASQSVYGNNELAWYQQKPGQPPKLLIYRASILTSGVPSRFKGSGSGTQFTLTISNVQREDAATYYCLGGYVSQSYRAAFGGGTELEIL
– | – | – | no binding | no binding | no binding | – | – | no binding (tested: 100 ng/50 µL) | – | ERR1-TOP40 chimeric rabbit/human Fab (Fab, V domains shown, Chimeric rabbit/human Fab with His tag, expressed in E. coli (pET11a); kappa light chain) VH: QEQLEESGGRLVTPGTPLTLTCTASGFSLSNYYMSWVRQAPGKGLEYIGIISSSGSTYYASWAKGRFTISKTSSTTVDLKITSPTTEDTATYFCARLYVSDSTANLWGPGTLVTVSS VL: DIVLTQTPSSTSAAVGGTVTIKCQASQSIDSYLAWYQQKPGQPPKLLIYGASNLASGVPSRFSGSRSGTEYILTISGVQREDAATYYCLGGYPNYFHRTAFGGGTKLEIK
